# Measurements: patent publication US20260167712A1, “INHIBITORY ANTIBODIES AGAINST GLUT1” (ICOSAGEN CELL FACTORY OÜ, priority 2022, published 2026)
# “Also recorded” adds a separate entry of the source.
# T1: SLC2A1 pseudotyped VLPs (Homo sapiens, UniProt P11166)
# T1 sequence (P11166 1-492): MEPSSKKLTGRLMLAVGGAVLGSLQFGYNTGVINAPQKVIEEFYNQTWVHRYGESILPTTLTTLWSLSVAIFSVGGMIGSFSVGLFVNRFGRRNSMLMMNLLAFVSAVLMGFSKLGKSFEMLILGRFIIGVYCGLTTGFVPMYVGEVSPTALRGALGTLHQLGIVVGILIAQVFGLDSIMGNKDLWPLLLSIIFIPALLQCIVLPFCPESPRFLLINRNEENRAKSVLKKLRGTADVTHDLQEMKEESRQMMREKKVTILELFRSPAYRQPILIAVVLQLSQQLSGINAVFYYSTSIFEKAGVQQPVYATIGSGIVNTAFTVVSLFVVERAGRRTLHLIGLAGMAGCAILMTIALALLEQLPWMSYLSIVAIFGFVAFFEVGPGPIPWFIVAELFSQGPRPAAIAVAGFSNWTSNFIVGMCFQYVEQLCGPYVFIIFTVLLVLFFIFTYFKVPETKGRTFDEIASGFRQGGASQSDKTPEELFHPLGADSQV
# T2: SLC2A3 pseudotyped VLPs (Homo sapiens, UniProt P11169)
# T2 sequence (P11169 1-496): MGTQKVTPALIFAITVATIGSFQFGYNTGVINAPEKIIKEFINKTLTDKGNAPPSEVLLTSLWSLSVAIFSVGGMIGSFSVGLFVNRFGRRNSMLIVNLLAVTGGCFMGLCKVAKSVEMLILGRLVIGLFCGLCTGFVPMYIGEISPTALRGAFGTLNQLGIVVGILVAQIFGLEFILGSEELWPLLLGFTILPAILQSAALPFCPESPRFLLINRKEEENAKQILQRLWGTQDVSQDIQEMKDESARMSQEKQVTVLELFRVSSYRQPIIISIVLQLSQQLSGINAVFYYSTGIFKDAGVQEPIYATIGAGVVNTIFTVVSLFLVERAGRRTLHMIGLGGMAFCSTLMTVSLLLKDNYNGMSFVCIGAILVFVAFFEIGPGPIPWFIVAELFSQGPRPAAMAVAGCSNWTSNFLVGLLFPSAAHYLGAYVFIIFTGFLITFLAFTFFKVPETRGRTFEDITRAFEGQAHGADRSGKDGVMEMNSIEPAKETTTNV
# T3: SLC2A1 pseudotyped VLPs (UniProt P11166 1-492)
# T3 chain: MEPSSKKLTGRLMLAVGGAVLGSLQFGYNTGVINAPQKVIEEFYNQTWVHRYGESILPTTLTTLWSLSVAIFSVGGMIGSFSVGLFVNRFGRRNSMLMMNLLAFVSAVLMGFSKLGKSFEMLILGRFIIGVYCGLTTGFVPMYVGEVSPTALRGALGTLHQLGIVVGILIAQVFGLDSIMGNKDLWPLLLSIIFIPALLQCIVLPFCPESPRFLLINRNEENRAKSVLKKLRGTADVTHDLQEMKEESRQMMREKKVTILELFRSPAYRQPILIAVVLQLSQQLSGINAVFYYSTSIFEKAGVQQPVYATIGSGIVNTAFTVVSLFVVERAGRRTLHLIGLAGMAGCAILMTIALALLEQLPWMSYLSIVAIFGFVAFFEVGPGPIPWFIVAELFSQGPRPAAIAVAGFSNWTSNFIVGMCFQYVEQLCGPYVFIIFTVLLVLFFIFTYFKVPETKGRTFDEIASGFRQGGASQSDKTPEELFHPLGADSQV
# T4: SLC2A3 pseudotyped VLPs (UniProt P11169 1-496)
# T4 construct: also called SLC2A3 VLPs; GLUT3
# T4 sequence: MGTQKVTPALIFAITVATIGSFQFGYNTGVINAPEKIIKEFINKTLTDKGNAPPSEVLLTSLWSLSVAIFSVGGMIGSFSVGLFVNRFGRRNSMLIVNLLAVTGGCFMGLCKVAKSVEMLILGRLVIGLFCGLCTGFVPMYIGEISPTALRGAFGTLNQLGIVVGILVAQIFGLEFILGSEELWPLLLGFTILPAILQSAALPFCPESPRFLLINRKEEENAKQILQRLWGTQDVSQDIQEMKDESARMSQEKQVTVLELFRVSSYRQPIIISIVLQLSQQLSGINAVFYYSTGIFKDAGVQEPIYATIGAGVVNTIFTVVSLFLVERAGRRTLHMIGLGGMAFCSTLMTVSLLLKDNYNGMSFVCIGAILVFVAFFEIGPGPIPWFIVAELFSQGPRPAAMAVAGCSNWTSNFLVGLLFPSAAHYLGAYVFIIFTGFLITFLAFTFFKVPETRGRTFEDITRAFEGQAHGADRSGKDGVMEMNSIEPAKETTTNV
# T5: SLC2A4 pseudotyped VLPs (UniProt P14672 1-509)
# T5 construct: also called SLC2A4 VLPs; GLUT4
# T5 sequence: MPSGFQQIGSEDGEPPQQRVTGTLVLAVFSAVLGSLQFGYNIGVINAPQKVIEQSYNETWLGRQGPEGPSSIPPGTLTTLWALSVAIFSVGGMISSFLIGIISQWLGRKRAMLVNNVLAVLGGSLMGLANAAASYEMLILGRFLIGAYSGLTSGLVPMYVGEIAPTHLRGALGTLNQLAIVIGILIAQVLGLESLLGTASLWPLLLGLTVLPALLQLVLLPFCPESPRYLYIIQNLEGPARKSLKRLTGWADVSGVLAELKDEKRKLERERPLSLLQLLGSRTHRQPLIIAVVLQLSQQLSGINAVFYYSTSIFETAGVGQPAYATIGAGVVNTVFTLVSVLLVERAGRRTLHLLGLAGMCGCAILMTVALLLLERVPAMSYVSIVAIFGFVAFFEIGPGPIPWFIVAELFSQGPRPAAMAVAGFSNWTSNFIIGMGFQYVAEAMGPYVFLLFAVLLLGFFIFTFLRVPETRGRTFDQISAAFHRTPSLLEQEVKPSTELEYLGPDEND
# Assays:
# SLC2A1 pseudotyped VLPs [1] = target: T1, SLC2A1 pseudotyped VLPs; experiment: ELISA-based SLC2A1 VLP binding assay; settings: 5 μg/mL VLP coating, FIG. 1
# Method: (§1) An ELISA-based VLP binding assay was carried out to compare the EC50 values of antibody clones (FIG. 1). Similarly, ELISA based VLP binding assay was performed to compare the binding of the antibodies to different glucose transporters (FIG. 3). MaxiSorp™ high-capacity binding ELISA plate (Thermo Fisher Scientific, US) were coated with 5 μg/mL SLC2A1, SLC2A2, SLC2A3, SLC2A4 pseudotyped VLPs or MOCK VLPs in PBS overnight. The plate was washed and blocked for 1 h with 0.05% Tween 20, 2% BSA in PBS. Serial dilutions of antibodies were incubated on a washed plate for 1 hour, followed by a 1-hour incubation with goat anti-human IgG horse radish peroxidase (HRP) conjugated (Invitrogen) antibody. TMB (3,3′,5,5′-Tetramethylbenzidine) Solution VII (Biopanda Diagnostics) was used as a substrate for HRP and 0.5 M H2SO4 was used as stop solution. After every step, the wells were washed with 0.05% Tween 20, 0.1% Proclin 300 PBS solution. Absorption at 450 nm was measured with Thermo Scientific™ Multiskan™ FC Microplate Photometer. Exemplary wise used antibodies 1G2 #9, 2A2 #12, 2E5 #22, 5G5 #30, 6F12 #33, 7C3 #39 all bound SLC2A1 VLPs with low nanomolar EC50 values (FIG. 1).
# SLC2A3 pseudotyped VLPs [2] = target: T2, SLC2A3 pseudotyped VLPs; experiment: ELISA-based VLP binding assay, SLC2A3; settings: compared to MOCK VLPs, FIG. 3
# Method: as §1
# MCF7 breast cancer cells = experiment: Cell proliferation inhibition assay (Incucyte), MCF7; type: cell-based; settings: for MCF7 cell growth in combination with phenformin: co-treatment with phenformin, FIGS. 7 and 9
# Method: Incucyte S3 Live cell analysis instrument and Cell-by-Cell analysis software module (Sartorius) were used to evaluate the effect of anti-SLC2A1 antibodies on cancer cell proliferation label-free (FIGS. 5-11). MCF7, PC3 or PANC1 or MIAPACA2 cells were plated on flat bottom tissue culture 96-well plate in […] medium (Ximbio) supplemented with 2.5% FBS. Cells were incubated overnight and 0.02 nM to 13 μM anti-SLC2A1 antibodies, anti-HEL isotype control, PBS or BAY-876 were added to the cells alone or in combination with metformin (CaymanChem), phenformin (Sigma Aldrich) or IACS-010759 (CaymanChem). Cell confluence or object count was measured for 24 to 96 hours with Incucyte S3 and normalized to timepoint 0 h or 4h. anti-SLC2A1 antibodies inhibit cancer cell proliferation alone and especially in combination with complex-I inhibitors metformin, phenformin and IACS-010759. Exemplary antibodies 1G2 #9, 2A2 #12, 2E5 #22, 5G5 #30, 6F12 #33, 7C3 #39 and R14 #54 were used in proliferation assays.
# [3] = tested on: MiaPaca2 xenograft tumors; experiment: Antitumor efficacy against MiaPaca2 xenograft tumors; type: in vivo, mice; settings: 6F12 #33 200 ug per mouse IP every 72 h plus daily Phenformin 20 mg/kg IP, versus phenformin alone, FIG. 12A
# Description: Hsd:Athymic Nude-Foxn1^nu mice (10 per group) were inoculated with 5e6 MiaPaca2 cells/mouse subcutaneously.
# SLC2A1 pseudotyped VLPs [4] = target: T3, SLC2A1 pseudotyped VLPs; experiment: ELISA
# SLC2A3 pseudotyped VLPs [5] = target: T4, SLC2A3 pseudotyped VLPs; experiment: ELISA on VLPs coated at 5 ug/mL, compared with MOCK VLPs
# SLC2A4 pseudotyped VLPs = target: T5, SLC2A4 pseudotyped VLPs; experiment: as above
Molecule,EC50 of binding to SLC2A1 VLPs (SLC2A1 pseudotyped VLPs [1]),binding to SLC2A3 VLPs (SLC2A3 pseudotyped VLPs [2]),"MCF7 cell growth in combination with IACS-010759 (MCF7 breast cancer cells; co-treatment with IACS-010759, FIG. 8)","MCF7 cell growth in combination with metformin (MCF7 breast cancer cells; co-treatment with metformin, FIG. 6)",MCF7 cell growth in combination with phenformin (MCF7 breast cancer cells),"tumor growth, cotreatment with phenformin [3]",EC50 (SLC2A1 pseudotyped VLPs [4]),binding result (SLC2A3 pseudotyped VLPs [5]),binding result (SLC2A4 pseudotyped VLPs),"MCF7 cell growth (confluence), single agent (MCF7 breast cancer cells; alone, Incucyte)"
"6F12 #33 (antibody, V domains shown) VH: AVTLDESGGGLQTPGGALSLVCKASGFTFSDHAIFWVRQAPDKGLEFVAAISSGTGSWTAYATVVKGRATISRDNGQSTVRLQLNNLRAADTATYYCAKGAGSACCYAGSIDAWGHGTEVIVSS VL: ALTQPSSVSANPGETVKITCSGGSSSSYYGWYQQKSPGSAPVTLIYYNDKRPSDIPSRFSGSKSGSTATLTITGVQVEDEAVYYCGTGDGSFAIFGAGTTLTVL",low nanomolar,did not bind,drastically inhibited,drastically inhibited,completely inhibit; also recorded: drastically inhibited; also recorded: most potent growth inhibitors,statistically significant tumor growth inhibition,0.6 nM,no binding,no binding,
"2E5 #22 (antibody, V domains shown) VH: AVTLDESGGGLQTPGGALSLVCKASGFTFSTKGMGWVRQTPGKGLEWVAGISSMRRYTYYAPAVKGRATISRDNGQSTVRLQLSSLRAEDSGTYYCARDATYCSWTTSTCGWSGGTIDAWGHGTEVIVSS VL: ALTQPSSVSANLGGTVKITCSGGSGNYGWYQQKSPGSVPVTVIYSNDKRPSDIPSRFSGSGSGSTATLTITGVQVEDEAVYFCGSRDSSYVGLFGAGTTLTVL",low nanomolar,did not bind; also recorded: Some binding,,,completely inhibit; also recorded: most potent growth inhibitors,,0.5 nM,no binding,no binding,only a modest inhibition
